Article PMC10526831, “SUPPRESSOR OF MAX2 LIKE 6, 7, and 8 Interact with DDB1 BINDING WD REPEAT DOMAIN HYPERSENSITIVE TO ABA DEFICIENT 1 to Regulate the Drought Tolerance and Target SUCROSE NONFERMENTING 1 RELATED PROTEIN K”

T1: GST-SMXL7 (Arabidopsis thaliana, UniProt O80875 1-1002)
T1 sequence: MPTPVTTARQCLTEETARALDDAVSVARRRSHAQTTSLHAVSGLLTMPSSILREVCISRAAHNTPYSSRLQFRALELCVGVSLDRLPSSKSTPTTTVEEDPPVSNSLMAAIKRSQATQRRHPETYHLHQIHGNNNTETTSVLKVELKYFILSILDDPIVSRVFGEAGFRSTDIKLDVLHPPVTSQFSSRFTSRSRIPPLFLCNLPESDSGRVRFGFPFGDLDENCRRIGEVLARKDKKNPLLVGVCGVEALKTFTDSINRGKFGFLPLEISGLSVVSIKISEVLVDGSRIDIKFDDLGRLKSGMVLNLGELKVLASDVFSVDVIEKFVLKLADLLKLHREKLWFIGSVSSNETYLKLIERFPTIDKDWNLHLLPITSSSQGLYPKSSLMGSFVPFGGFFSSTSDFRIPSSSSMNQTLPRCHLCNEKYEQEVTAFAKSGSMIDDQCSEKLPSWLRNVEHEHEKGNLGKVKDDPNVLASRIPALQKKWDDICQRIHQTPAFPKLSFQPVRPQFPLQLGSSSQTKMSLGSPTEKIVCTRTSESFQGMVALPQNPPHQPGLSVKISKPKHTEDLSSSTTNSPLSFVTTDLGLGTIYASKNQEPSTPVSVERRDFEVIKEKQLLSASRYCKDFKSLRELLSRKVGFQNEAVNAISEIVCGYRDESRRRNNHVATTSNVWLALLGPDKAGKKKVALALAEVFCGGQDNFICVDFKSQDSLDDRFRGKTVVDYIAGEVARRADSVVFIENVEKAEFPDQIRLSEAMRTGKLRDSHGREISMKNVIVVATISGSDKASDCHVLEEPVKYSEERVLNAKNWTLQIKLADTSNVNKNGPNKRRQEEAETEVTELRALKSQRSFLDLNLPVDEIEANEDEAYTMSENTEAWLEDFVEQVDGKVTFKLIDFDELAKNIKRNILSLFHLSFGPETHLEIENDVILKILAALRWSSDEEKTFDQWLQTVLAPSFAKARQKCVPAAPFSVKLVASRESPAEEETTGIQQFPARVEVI

T2: GST-SMXL6 (Arabidopsis thaliana, UniProt Q9LML2 1-979)
T2 sequence: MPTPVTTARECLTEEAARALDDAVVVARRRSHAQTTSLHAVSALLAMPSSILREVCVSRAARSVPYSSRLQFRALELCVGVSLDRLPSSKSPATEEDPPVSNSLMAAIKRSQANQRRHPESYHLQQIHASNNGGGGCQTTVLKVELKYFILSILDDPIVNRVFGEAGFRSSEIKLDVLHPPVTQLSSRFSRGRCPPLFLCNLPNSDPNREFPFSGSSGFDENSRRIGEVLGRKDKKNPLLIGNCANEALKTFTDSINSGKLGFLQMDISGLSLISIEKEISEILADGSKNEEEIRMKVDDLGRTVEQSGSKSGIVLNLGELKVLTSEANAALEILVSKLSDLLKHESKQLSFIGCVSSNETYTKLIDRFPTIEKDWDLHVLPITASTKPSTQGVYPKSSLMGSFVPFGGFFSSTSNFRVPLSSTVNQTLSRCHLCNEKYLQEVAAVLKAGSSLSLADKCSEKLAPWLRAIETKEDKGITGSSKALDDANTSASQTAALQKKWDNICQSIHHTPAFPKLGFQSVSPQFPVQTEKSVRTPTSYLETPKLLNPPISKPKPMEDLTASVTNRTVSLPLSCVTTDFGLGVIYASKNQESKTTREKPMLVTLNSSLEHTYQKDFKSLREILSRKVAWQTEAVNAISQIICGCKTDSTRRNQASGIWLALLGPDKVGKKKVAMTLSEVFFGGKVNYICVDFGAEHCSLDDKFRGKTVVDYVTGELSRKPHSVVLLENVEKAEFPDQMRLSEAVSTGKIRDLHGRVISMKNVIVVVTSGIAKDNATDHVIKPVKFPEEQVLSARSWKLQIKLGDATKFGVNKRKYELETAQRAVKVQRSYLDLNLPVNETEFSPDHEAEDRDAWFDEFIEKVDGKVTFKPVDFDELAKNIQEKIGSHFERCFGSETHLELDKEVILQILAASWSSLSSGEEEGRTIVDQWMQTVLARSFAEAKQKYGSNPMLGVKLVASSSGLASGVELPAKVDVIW

T3: GST-SMXL8 (Arabidopsis thaliana, UniProt F4IGZ2 1-910)
T3 sequence: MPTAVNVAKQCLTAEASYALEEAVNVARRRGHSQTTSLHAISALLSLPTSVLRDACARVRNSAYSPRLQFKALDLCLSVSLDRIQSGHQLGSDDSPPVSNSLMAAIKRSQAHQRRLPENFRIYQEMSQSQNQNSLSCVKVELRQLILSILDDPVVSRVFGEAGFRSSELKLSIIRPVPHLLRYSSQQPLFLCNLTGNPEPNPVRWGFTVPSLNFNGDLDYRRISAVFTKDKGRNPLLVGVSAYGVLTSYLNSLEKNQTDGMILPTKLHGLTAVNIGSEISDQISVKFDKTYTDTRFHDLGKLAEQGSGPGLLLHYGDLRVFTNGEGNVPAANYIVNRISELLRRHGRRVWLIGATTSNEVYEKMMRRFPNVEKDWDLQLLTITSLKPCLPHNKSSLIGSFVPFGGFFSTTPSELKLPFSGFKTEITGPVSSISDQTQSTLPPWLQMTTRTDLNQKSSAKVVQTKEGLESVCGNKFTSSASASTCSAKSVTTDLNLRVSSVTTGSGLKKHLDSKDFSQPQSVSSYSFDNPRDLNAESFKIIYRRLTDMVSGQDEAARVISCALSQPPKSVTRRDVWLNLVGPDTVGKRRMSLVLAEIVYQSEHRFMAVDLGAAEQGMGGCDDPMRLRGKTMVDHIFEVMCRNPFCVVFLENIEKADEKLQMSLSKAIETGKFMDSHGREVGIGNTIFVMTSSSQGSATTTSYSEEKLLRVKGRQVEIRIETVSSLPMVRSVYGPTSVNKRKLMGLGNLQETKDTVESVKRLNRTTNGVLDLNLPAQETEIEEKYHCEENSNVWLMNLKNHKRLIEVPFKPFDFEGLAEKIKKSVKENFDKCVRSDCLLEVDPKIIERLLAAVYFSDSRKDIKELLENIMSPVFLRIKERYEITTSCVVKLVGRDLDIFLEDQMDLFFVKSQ


Key:
Assay in all cases: EMSA; 25x unlabeled probe as competitor; 1 ug protein, 20 uL reaction, room temperature 30 min; 6% native PAGE in 0.5x TBE; binding buffer, salt and pH not given
Settings in all cases: protein: recombinant; tags: N-terminal GST (pGEX-6P-1); label: biotin; blunt
[1] = target: T1, GST-SMXL7
[2] = target: T2, GST-SMXL6
[3] = target: T3, GST-SMXL8

Binder | binding result [1] | binding result [2] | binding result [3]
SnRK2.3 promoter p2.3-3-1-2-a (dsDNA) DNA 1: CTTGGGGCAACCAATTATTGCCTTTTTTCTTCCTCTCTTTCCTTATTCGTT DNA 2: AACGAATAAGGAAAGAGAGGAAGAAAAAAGGCAATAATTGGTTGCCCCAAG | binds | binds | binds
SnRK2.6 promoter p2.6-3-1-1-a (dsDNA) DNA 1: GACATTTGTGGTAACTTGTTTTTCTTTTATTTTCCGTTTTTAAATGCGGAAACCCTT DNA 2: AAGGGTTTCCGCATTTAAAAACGGAAAATAAAAGAAAAACAAGTTACCACAAATGTC | – | binds | binds
